This passage reports abundance fitness results from the Human Domainome abundance scans (Beltran et al. 2025).

± gives the uncertainty stated by the source.

Sequences and labels used below:
B1: Peroxisome proliferator-activated receptor delta, residues 71 to 145; numbered along this chain, Q03181 (parent)
chain: NMECRVCGDKASGFHYGVHACEGCKGFFRRTIRMKLEYEKCERSCKIQKKNRNKCQYCRFQKCLALGMSHNAIRF

This data set covers variants of B1. Description: abundance fitness (aPCA) (normalised: wild type 0, dead -1); higher = more abundant; growth selection in yeast, the domain comes from the species named. The conditions noted are these: Homo sapiens.
As for NMECRVCGDKASGFHYGVHACEGCKGFFRRTISMKLEYEKCERSCKIQKKNRNKCQYCRFQKCLALGMSHNAIRF, the abundance fitness amounted to 0.168 ± 0.043.

On to NMECRVCGDKASGFHYGVHACEGCKGFFRRTIMMKLEYEKCERSCKIQKKNRNKCQYCRFQKCLALGMSHNAIRF, for which the abundance fitness came out at 0.088 ± 0.066.

As for NMECRVCGDKASGFHYGVHACEGCKGFFRRTIRMKLEYEKCERSCKIQKKNRNKCQYCRFQKCLALGMSHNLIRF, the abundance fitness was -0.144 ± 0.041.

For the variant NMECRVCGDKASGFHYGVHACEGCKPFFRRTIRMKLEYEKCERSCKIQKKNRNKCQYCRFQKCLALGMSHNAIRF, the abundance fitness is -1.02 ± 0.18.

In the case of NMECRVCGDKASGFHYGVHACEGCKGFFRRTIRMKLEYEKCERSCKIQKKNRNKCQYCRFQKCQALGMSHNAIRF, the abundance fitness was -0.162 ± 0.056.

Regarding NMECRVCGDKASGFHYGVHACEGCKGFFRRTHRMKLEYEKCERSCKIQKKNRNKCQYCRFQKCLALGMSHNAIRF, the abundance fitness was -0.405 ± 0.12.

As to NMECRVCGDKASGFHYGVHACVGCKGFFRRTIRMKLEYEKCERSCKIQKKNRNKCQYCRFQKCLALGMSHNAIRF, the abundance fitness is -0.325 ± 0.055.

Regarding NMECRVCGDKASGDHYGVHACEGCKGFFRRTIRMKLEYEKCERSCKIQKKNRNKCQYCRFQKCLALGMSHNAIRF, the abundance fitness worked out at 0.014 ± 0.052.

For the variant NMECRPCGDKASGFHYGVHACEGCKGFFRRTIRMKLEYEKCERSCKIQKKNRNKCQYCRFQKCLALGMSHNAIRF, the abundance fitness is -0.923 ± 0.12.

Consider NMECRVCGDKASGFHYGVSACEGCKGFFRRTIRMKLEYEKCERSCKIQKKNRNKCQYCRFQKCLALGMSHNAIRF, for which the abundance fitness was 0.046 ± 0.037.

For NMECRVCGDKASGFHYGVHACEGCKGFFRRTIRMKLEYEKCERSTKIQKKNRNKCQYCRFQKCLALGMSHNAIRF, the abundance fitness is -1 ± 0.17.

With NMECRVCGDKASGFHYGVHACEGCKGFFRRTIRMKLEYEKCERSCKIQKKNRNKCQYCTFQKCLALGMSHNAIRF, the abundance fitness was -0.218 ± 0.054.

As for NMECRVCGDKASGFHYGVHACEGCKGFFRRTIRMKLEYEKCERSCKGQKKNRNKCQYCRFQKCLALGMSHNAIRF, the abundance fitness is -0.269 ± 0.025.

In the case of NMECRVCGDKAAGFHYGVHACEGCKGFFRRTIRMKLEYEKCERSCKIQKKNRNKCQYCRFQKCLALGMSHNAIRF, the abundance fitness is -0.119 ± 0.042.

Turning to NMECRVKGDKASGFHYGVHACEGCKGFFRRTIRMKLEYEKCERSCKIQKKNRNKCQYCRFQKCLALGMSHNAIRF, the abundance fitness was -0.63 ± 0.13.

For the variant NMECRVCGDKASGFHYGVHACEGCKGFFRRTIRMKLEYEKCERSCKIQKKNRNKCQWCRFQKCLALGMSHNAIRF, the abundance fitness was -0.125 ± 0.054.

Regarding NMECRVCGDKASGFHYGVHACEGCKGFFRRTIRMKLEYEKCERSCKIQKKNRNKCQYCRFQKCLALGMSHNASRF, the abundance fitness worked out at 0.071 ± 0.035.

With NMECRVCGDKASGFHYGVHACEGCKGFSRRTIRMKLEYEKCERSCKIQKKNRNKCQYCRFQKCLALGMSHNAIRF, the abundance fitness is -0.625 ± 0.083.

With NMECRVCGDKASGFHYGVHACEGCKGFFRRTIRMKLEYEKCERSCKIQKKNRNKCQYCRFQKCLALGHSHNAIRF, the abundance fitness is -0.771 ± 0.25.

On to NMECRVCGDKASGFHYGVHACEGCKGFFRRTIRMKLEYEKCERSCKIQKKNRNKCQYCRFQKCLALGISHNAIRF, for which the abundance fitness was -0.703 ± 0.15.

As for NMECRVCGDKASGFHYGVHACEGCKGFFRRTIRMKLEYEKCERSCKIQKKMRNKCQYCRFQKCLALGMSHNAIRF, the abundance fitness is -0.026 ± 0.072.

In the case of NMECRVCGDKASGFHYGVHACEGCKGFFRRTIRMKLEYEKCERSCKIQKKSRNKCQYCRFQKCLALGMSHNAIRF, the abundance fitness was -0.052 ± 0.048.

In the case of NMECRVCGDKASGFHYGVHACEGCKGFFRRTIRMKLEYEKCERSCKIQKKKRNKCQYCRFQKCLALGMSHNAIRF, the abundance fitness was -0.212 ± 0.065.

On to EMECRVCGDKASGFHYGVHACEGCKGFFRRTIRMKLEYEKCERSCKIQKKNRNKCQYCRFQKCLALGMSHNAIRF, for which the abundance fitness was -0.07 ± 0.065.

In the case of NMECRVCGDKASGFHYGVHNCEGCKGFFRRTIRMKLEYEKCERSCKIQKKNRNKCQYCRFQKCLALGMSHNAIRF, the abundance fitness was -0.222 ± 0.17.

With NMECRVCGDKASGFHYGVHACEGCKGFFRRTIRMKLEYEKCERSCKIQKKNRNKCQYCRFQKCLALGMKHNAIRF, the abundance fitness was 0.023 ± 0.051.

Turning to NMECRVCGHKASGFHYGVHACEGCKGFFRRTIRMKLEYEKCERSCKIQKKNRNKCQYCRFQKCLALGMSHNAIRF, the abundance fitness is -0.668 ± 0.2.

In the case of NMECSVCGDKASGFHYGVHACEGCKGFFRRTIRMKLEYEKCERSCKIQKKNRNKCQYCRFQKCLALGMSHNAIRF, the abundance fitness turned out to be 0.034 ± 0.038.

NMECRVCGDKASGFHYGVHACEGCKGFFRRTIRMKLEYEKCERSCKIQKKNRNKCQYCRFQKCLALWMSHNAIRF: the abundance fitness was -0.666 ± 0.1.

NMECRVCGDKASGFHYGVHACEGCKGFFRRTIRMKLEYEKCERWCKIQKKNRNKCQYCRFQKCLALGMSHNAIRF: the abundance fitness is -0.314 ± 0.058.

Take NMECRVCGDKASGFHYGVHACEGCKGFFRRTIRMKLEYEKCERSCKIQKKNRNKCQYCRFQKCLALGMSHNAIEF: the abundance fitness was determined as 0.259 ± 0.052.

With NTECRVCGDKASGFHYGVHACEGCKGFFRRTIRMKLEYEKCERSCKIQKKNRNKCQYCRFQKCLALGMSHNAIRF, the abundance fitness was -0.156 ± 0.052.

As for NMECRVCGDKASGFHYGVHACEGCVGFFRRTIRMKLEYEKCERSCKIQKKNRNKCQYCRFQKCLALGMSHNAIRF, the abundance fitness came to 0.109 ± 0.037.

As for NMECRVCGDKASGFHYGVHACEGCPGFFRRTIRMKLEYEKCERSCKIQKKNRNKCQYCRFQKCLALGMSHNAIRF, the abundance fitness was -0.878 ± 0.13.

As to NMECRVCGDKASGFHFGVHACEGCKGFFRRTIRMKLEYEKCERSCKIQKKNRNKCQYCRFQKCLALGMSHNAIRF, the abundance fitness was -0.085 ± 0.082.

NMDCRVCGDKASGFHYGVHACEGCKGFFRRTIRMKLEYEKCERSCKIQKKNRNKCQYCRFQKCLALGMSHNAIRF: the abundance fitness amounted to 0.059 ± 0.064.

For NMECRVCGDKASGFHYGVHACEGCKGFFRRTIRMKLEYEKCERSCKIQKKNRNKCQYFRFQKCLALGMSHNAIRF, the abundance fitness is -1 ± 0.24.
